Results reported in patent publication US20170306031A1 (NGM BIOPHARMACEUTICALS, published 2017).
Like-named read-outs stand apart in the source and are kept apart here.

T1: human GFRAL expressed on cells (human, UniProt Q6UXV0 20-394)
T1 sequence: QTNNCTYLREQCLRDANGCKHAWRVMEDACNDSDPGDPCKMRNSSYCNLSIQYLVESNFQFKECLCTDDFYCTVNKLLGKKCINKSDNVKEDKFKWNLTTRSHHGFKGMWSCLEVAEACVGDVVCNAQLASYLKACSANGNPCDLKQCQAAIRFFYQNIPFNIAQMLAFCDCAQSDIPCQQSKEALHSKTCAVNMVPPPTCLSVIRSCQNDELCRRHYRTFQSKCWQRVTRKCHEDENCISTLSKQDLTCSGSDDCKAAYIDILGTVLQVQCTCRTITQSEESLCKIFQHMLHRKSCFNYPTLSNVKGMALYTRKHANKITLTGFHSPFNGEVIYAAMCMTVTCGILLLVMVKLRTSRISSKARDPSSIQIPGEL

T2: mouse GFRAL expressed on cells (mouse, UniProt Q6SJE0 20-393)
T2 sequence: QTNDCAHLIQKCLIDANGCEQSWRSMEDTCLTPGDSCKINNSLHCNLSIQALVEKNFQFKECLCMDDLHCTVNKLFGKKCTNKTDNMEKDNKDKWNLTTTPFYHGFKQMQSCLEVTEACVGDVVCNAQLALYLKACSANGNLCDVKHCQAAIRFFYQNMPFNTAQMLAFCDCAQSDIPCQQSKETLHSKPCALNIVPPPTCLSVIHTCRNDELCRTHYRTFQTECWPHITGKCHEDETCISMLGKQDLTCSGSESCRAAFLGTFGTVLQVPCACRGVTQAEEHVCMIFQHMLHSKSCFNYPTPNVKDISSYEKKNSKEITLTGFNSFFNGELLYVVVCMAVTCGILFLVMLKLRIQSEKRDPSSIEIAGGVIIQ

T3: mouse GFRAL (analyte in Biacore assays) (mouse, UniProt Q6SJE0 20-349, limits assumed)
T3 construct: injected in solution over captured antibody
T3 sequence: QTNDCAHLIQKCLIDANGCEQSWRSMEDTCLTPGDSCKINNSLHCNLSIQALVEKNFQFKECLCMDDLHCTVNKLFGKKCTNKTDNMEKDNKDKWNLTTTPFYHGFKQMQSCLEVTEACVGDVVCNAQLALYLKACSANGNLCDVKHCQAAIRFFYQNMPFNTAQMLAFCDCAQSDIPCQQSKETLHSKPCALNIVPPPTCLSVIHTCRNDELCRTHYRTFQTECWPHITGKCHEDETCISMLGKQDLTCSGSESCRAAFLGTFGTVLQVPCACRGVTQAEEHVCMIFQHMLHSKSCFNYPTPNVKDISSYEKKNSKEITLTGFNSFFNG

T4: human GFRAL (analyte in Biacore assays) (human, UniProt Q6UXV0 19-351, limits assumed)
T4 construct: injected in solution over captured antibody; also called hGFRAL
T4 sequence: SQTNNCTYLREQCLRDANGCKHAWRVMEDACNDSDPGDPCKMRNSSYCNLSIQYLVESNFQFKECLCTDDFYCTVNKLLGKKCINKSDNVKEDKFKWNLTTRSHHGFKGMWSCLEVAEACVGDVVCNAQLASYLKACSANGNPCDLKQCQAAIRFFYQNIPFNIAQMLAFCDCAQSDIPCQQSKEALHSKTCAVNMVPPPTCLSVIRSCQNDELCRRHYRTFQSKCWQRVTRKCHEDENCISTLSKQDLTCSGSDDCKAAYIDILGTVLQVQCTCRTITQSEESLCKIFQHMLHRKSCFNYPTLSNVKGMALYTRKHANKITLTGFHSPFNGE


Key:
[1] = molecular target: T1, human GFRAL expressed on cells; assay: cell-based or functional assay
[2] = molecular target: T2, mouse GFRAL expressed on cells; assay: cell-based or functional assay
[3] = molecular target: T1, human GFRAL expressed on cells; assay: cell-based or functional assay; remark: listed apart in the source
[4] = molecular target: T3, mouse GFRAL (analyte in Biacore assays); assay: Biacore SPR, antibody captured, GFRAL injected
Description: (§1) In addition, the binding affinity of antibodies to human and mouse GFRAL were measured. For example, antibodies were rank ordered based on their binding affinity to human GFRAL and mouse GFRAL by low resolution KD measurement by Biacore. Briefly, an anti-mouse Fc antibody (Sigma-Aldrich, St. Louis, Mo.) was immobilized on all four flow cells of a CM5 chip using amine coupling reagents (GE Healthcare LifeSciences, Piscataway, N.J.). Purified antibodies were captured (˜100 RUs) on flow cells 2, 3 and 4 using flow cell 1 as a reference. This was followed by injection of human or mouse GFRAL (25 nM in PBS-P buffer) at a flow rate of 70 μL/m in and monitoring the binding kinetics at 25° C.
(§2) Binding affinity measurements were also made in additional Biacore based assays. For example, equilibrium dissociation constant (KD) measurements were carried out with purified antibodies to evaluate their binding to human GFRAL or mouse GFRAL. As mentioned above, anti-mouse Fc antibody (Sigma-Aldrich, St. Louis, Mo.) was immobilized on all four flow cells of a CM5 chip using amine coupling reagents (GE Healthcare LifeSciences, Piscataway, N.J.). Purified antibodies were captured (˜100 RUs) on flow cells 2, 3 and 4 using flow cell 1 as a reference. This was followed by injection of human or mouse GFRAL in PBS-P buffer) at a flow rate of 70 μL/min and the binding kinetics were evaluated at 25° C.

[5] = molecular target: T4, human GFRAL (analyte in Biacore assays); assay: Biacore SPR, antibody captured, GFRAL injected
Description: as §1, §2

[6] = molecular target: T1, human GFRAL expressed on cells; assay: cell-based or functional assay; remark: listed apart in the source
[7] = molecular target: T4, human GFRAL (analyte in Biacore assays); assay: Biacore SPR, antibody captured, human GFRAL injected
Description: Exemplary humanized anti-GFRAL antibodies identified in Example 6 were assayed for their binding affinity to human GFRAL. Binding affinity measurements were made in Biacore based assays. For example, equilibrium dissociation constant (KD) measurements were carried out with purified antibodies to evaluate their binding to human GFRAL. Using methods described in Example II, anti-mouse Fc antibody (Sigma-Aldrich, St. Louis, Mo.) was immobilized on all four flow cells of a CM5 chip using amine coupling reagents (GE Healthcare LifeSciences, Piscataway, N.J.). Purified humanized anti-GFRAL antibodies were captured (˜100 RUs) on flow cells 2, 3 and 4 using flow cell 1 as a reference. This was followed by injection of human GFRAL in PBS-P buffer) at a flow rate of 70 μL/min and the binding kinetics were evaluated at 25° C.

IC50, ELK1-luciferase reporter (hGFRAL/hRET) [1] [nM] | IC50, ELK1-luciferase reporter (mGFRAL/mRET) [2] [nM] | IC50, ERK phosphorylation in U2OS hGFRAL/hRET cells [3] [nM] | Kd [4] [nM] | koff [4] [s⁻¹] | Kd [5] [nM] | koff [5] [s⁻¹] | IC50, ELK1-luciferase reporter (hGFRAL/hRET) [6] [nM] | Kd [7] [nM] | Binder
3.71 | 7.87 | 0.94 | 3.6 | 0.0029 | 0.25 | 0.000153 | – | – | antibody designated 2A9 (antibody, V domains shown, mouse hybridoma monoclonal) VH: EVKLVESGGGLVKPGGSLKLSCAASGFTFSTYAMSWVRQTPEKRLEWVASITSGGTTYYTDSVKGRFTISRDNARNILYLQMSSLRSEDTAMYYCARDGNFYYYGMDYWGQGTSVTVSS VL: DIVMTQSQKFMSTSVGDRVSITCKASQNVGTAVAWYQQKPGQSPKILIYSASNRFTGVPDRFTGSGSGTDFTLTISNMQSEDLADYFCQQYSSYFTFGGGTKLELK
3.19 | 0.6 | 1.8 | < 0.1 | 0.0004 | 0.081 | 3.32e-05 | – | – | antibody designated 5A20 (antibody, V domains shown, mouse hybridoma monoclonal) VH: QVQLQQSGPELMKPGASVILSCKAIGYTFTDYWIEWVKERPGHGLEWIGEILLGSDSIHFNEKFKGKATISADTSSNTAYMQLSSLTTEDSAIYYCVRQDWNWYFDVWGTGTTVTVSS VL: not shown
18.9 | 8.32 | 1.86 | 5.02 | 0.00173 | 1.4 | 0.000696 | – | – | antibody designated 24G2 (antibody, V domains shown, mouse hybridoma monoclonal) VH: QVQLQQSGAELLKPGASVKLSCKASGYTFTTYWMHWVKQRPGQGLEWIGMIHPNSGSSNYNEKFKNKATLTVDKSSSTAYMQLSSLTSEDSAVYFCARSDYGFIPYFDYWGQGTTLTVSS VL: DILLTQSPAILSVSPGERVSFSCRASQSIGTSIHWYQQRTNGSPRLLIKYASESISGIPSRFSGSGSGTDFTLIINSVESEDIADYYCQQSNSWPTFTFGAGTKLELK
2.11 | 1.42 | 0.63 | 8.17 | 0.00281 | 0.46 | 0.000124 | – | – | antibody designated 8D8 (antibody, V domains shown, mouse hybridoma monoclonal) VH: QVQLKESGPGLVAPSQSLSITCTVSGFSLSRYSVHWVRQPPGKGLEWLGMIWGFGSTDYNSALKSRLSITKDNSKSQFFLKMNSLQTDDTAMYYCARIHTTAGSYWGQGTLVTVSA VL: DIVMTQSQKFMSTSIGDRVSVTCKASQNVGTNVAWYQQKPGQSPKALVYSTSYRYSGVPDRFTGSGSGTDFTLTISNVQSEDLAEYFCHQYNSYPLTFGAGTKLELK
7.74 | 2.6 | 0.9 | 3.47 | 0.000943 | 0.21 | 0.000132 | – | – | antibody designated 22N5 (antibody, V domains shown, mouse hybridoma monoclonal) VH: QNQLVQSGPELKKPGEIVKISCKTSGYTFTDYSMHWVKKTPGKGFKWMGWINTETGEPTYADDFKGRFAFSLETSANTAHLQITNLKNEDTATYFCVKGTLNYWGQGTTLTVSS VL: DIKMTQSPSSMYASLGERVTITCKASQDIKSYLNWFQQKPGKSPKTLIYRTKRLVDGVPSRFSGSGSGQDYSLTVSSLEYDDVGIYYCLQYVEFPLTFGDGTKLELK
– | – | – | – | – | – | – | 3.86 | 0.074 | humanized anti-GFRAL antibody HC-375d/LC-375a (antibody, V domains shown, humanized 5F12) VH: QVQLVQSGAEVKKPGSSVKVSCKASGYTFTDYYINWVRQAPGQGLEWIGRIYPGNGNTYHNEKFKGRATLTADKSTSTAYMELSSLRSEDTAVYYCAREGLYYDYDRYFDYWGQGTLVTVSS VL: DIVMTQSPDSLAVSLGERATINCRASESVDTYGNSFMHWYQQKPGQPPKLLIYLASNLESGVPDRFSGSGSGTDFTLTISSLQAEDVAVYYCHQNNEDPPAFGGGTKVEIK
– | – | – | – | – | – | – | 2.79 | 0.077 | humanized anti-GFRAL antibody HC-375d/LC-375g (antibody, IgG1, V domains shown, humanized 5F12) VH: QVQLVQSGAEVKKPGSSVKVSCKASGYTFTDYYINWVRQAPGQGLEWIGRIYPGNGNTYHNEKFKGRATLTADKSTSTAYMELSSLRSEDTAVYYCAREGLYYDYDRYFDYWGQGTLVTVSS VL: DIVLTQSPDSLAVSLGERATINCRASESVDTYGNSFMHWYQQKPGQPPKLLIYLASNLESGVPDRFSGSGSRTDFTLTISSLQAEDVAVYYCHQNNEDPPAFGGGTKVEIK
– | – | – | – | – | – | – | 2.81 | 0.091 | humanized anti-GFRAL antibody HC-375e/LC-375a (antibody, V domains shown, humanized 5F12) VH: QVQLVQSGAEVKKPGSSVKVSCKASGYTFTDYYINWVRQAPGQGLEWMGRIYPGNGNTYHNEKFKGRATLTADESTSTAYMELSSLRSEDTAVYYCAREGLYYDYDRYFDYWGQGTLVTVSS VL: DIVMTQSPDSLAVSLGERATINCRASESVDTYGNSFMHWYQQKPGQPPKLLIYLASNLESGVPDRFSGSGSGTDFTLTISSLQAEDVAVYYCHQNNEDPPAFGGGTKVEIK
8.64 | 1.19 | 0.61 | 3.68 | 0.0025 | < 0.1 | – | – | – | antibody designated 1C1 (antibody, V domains shown, mouse hybridoma monoclonal) VH: QMQLKQSGPGLVQPSQSLSITCTVSGFSLNDYGVHWIRQSPGKGLEWLGVIWSGGRTDYNAAFISRLSISKDNSKSQVFFKMSSLQPQDTAIYYCARWALYFLYGGSMDYWGQGTSVTVSS VL: DVVLTQTPLSLPVSPGDQASISCRSSQSLVHSSGITYLHWYLQKPGQSPKLLIYKLSNRFSGVPDRFSGSGSGTDFTLKISRVEAEDLGVYFCSQSTHVPPWTFGGGTKLEIK
0.666 | 0.407 | 0.1 | < 0.1 | 1e-05 | < 0.1 | ~1e-05 | – | – | antibody designated 17J16 (antibody, V domains shown, mouse hybridoma monoclonal) VH: QVQLQQSGAELAKPGASVKMSCKTSGYTFTDYWIHWVKQRPGQGLEWIGYINPNSNYAEYNQKFKVKATLTADKSSSTAYLQLSRLTSEDSAVYYCARFDWNWYFHVWGAGSTVTVSS VL: DVALTQIPLTLSVTVGQPASISCKSSQSLSDSDGKTYLNWLLQKPGQSPKRLIYLVSRLGSGVPDRFTGSGSGADFTLKISRVEAEDLGVYYCWQGTHFPQTFGGGTKLEIK
